Source: publication PMC12416549 (2024)

T1: TNFR1 (Homo sapiens, UniProt P19438)
T1 chain: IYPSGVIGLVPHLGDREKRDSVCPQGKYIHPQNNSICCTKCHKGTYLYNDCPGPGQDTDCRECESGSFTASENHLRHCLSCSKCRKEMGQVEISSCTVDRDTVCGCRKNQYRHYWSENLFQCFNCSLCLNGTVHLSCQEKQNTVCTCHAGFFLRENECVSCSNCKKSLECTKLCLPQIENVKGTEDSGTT


Biological target: T1, TNFR1
Assay: yeast display SC50

Binder	apparent Kd (screen) [nM]
I21H (designed binder) SMEEEVEKAAKEYEKKKKEAHEKHLEKLKAKDKEAAERFLKELEEAAKEYAKDEAKTMSEEEAKRRAKKYKEKVLLSELSEEEQKEIKEAEEKLVRTILKYVEEAAK	1.05
A105E (designed binder) SMEEEVEKAAKEYEKKKKEAIEKHLEKLKAKDKEAAERFLKELEEAAKEYAKDEAKTMSEEEAKRRAKKYKEKVLLSELSEEEQKEIKEAEEKLVRTILKYVEEEAK	0.446
E89Q (designed binder) SMEEEVEKAAKEYEKKKKEAIEKHLEKLKAKDKEAAERFLKELEEAAKEYAKDEAKTMSEEEAKRRAKKYKEKVLLSELSEEEQKEIKQAEEKLVRTILKYVEEAAK	1.05
I98W (designed binder) SMEEEVEKAAKEYEKKKKEAIEKHLEKLKAKDKEAAERFLKELEEAAKEYAKDEAKTMSEEEAKRRAKKYKEKVLLSELSEEEQKEIKEAEEKLVRTWLKYVEEAAK	1.86
T57G (designed binder) SMEEEVEKAAKEYEKKKKEAIEKHLEKLKAKDKEAAERFLKELEEAAKEYAKDEAKGMSEEEAKRRAKKYKEKVLLSELSEEEQKEIKEAEEKLVRTILKYVEEAAK	10.4
K48S (designed binder) SMEEEVEKAAKEYEKKKKEAIEKHLEKLKAKDKEAAERFLKELEEAASEYAKDEAKTMSEEEAKRRAKKYKEKVLLSELSEEEQKEIKEAEEKLVRTILKYVEEAAK	0.446
K107W (designed binder) SMEEEVEKAAKEYEKKKKEAIEKHLEKLKAKDKEAAERFLKELEEAAKEYAKDEAKTMSEEEAKRRAKKYKEKVLLSELSEEEQKEIKEAEEKLVRTILKYVEEAAW	5.84
K16N (designed binder) SMEEEVEKAAKEYEKNKKEAIEKHLEKLKAKDKEAAERFLKELEEAAKEYAKDEAKTMSEEEAKRRAKKYKEKVLLSELSEEEQKEIKEAEEKLVRTILKYVEEAAK	0.335
E12P (designed binder) SMEEEVEKAAKPYEKKKKEAIEKHLEKLKAKDKEAAERFLKELEEAAKEYAKDEAKTMSEEEAKRRAKKYKEKVLLSELSEEEQKEIKEAEEKLVRTILKYVEEAAK	9.41
K52W (designed binder) SMEEEVEKAAKEYEKKKKEAIEKHLEKLKAKDKEAAERFLKELEEAAKEYAWDEAKTMSEEEAKRRAKKYKEKVLLSELSEEEQKEIKEAEEKLVRTILKYVEEAAK	5.31
K29W (designed binder) SMEEEVEKAAKEYEKKKKEAIEKHLEKLWAKDKEAAERFLKELEEAAKEYAKDEAKTMSEEEAKRRAKKYKEKVLLSELSEEEQKEIKEAEEKLVRTILKYVEEAAK	0.869
K11C (designed binder) SMEEEVEKAACEYEKKKKEAIEKHLEKLKAKDKEAAERFLKELEEAAKEYAKDEAKTMSEEEAKRRAKKYKEKVLLSELSEEEQKEIKEAEEKLVRTILKYVEEAAK	1.69
L94W (designed binder) SMEEEVEKAAKEYEKKKKEAIEKHLEKLKAKDKEAAERFLKELEEAAKEYAKDEAKTMSEEEAKRRAKKYKEKVLLSELSEEEQKEIKEAEEKWVRTILKYVEEAAK	0.446
E92M (designed binder) SMEEEVEKAAKEYEKKKKEAIEKHLEKLKAKDKEAAERFLKELEEAAKEYAKDEAKTMSEEEAKRRAKKYKEKVLLSELSEEEQKEIKEAEMKLVRTILKYVEEAAK	12.5
K88G (designed binder) SMEEEVEKAAKEYEKKKKEAIEKHLEKLKAKDKEAAERFLKELEEAAKEYAKDEAKTMSEEEAKRRAKKYKEKVLLSELSEEEQKEIGEAEEKLVRTILKYVEEAAK	0.49
E14W (designed binder) SMEEEVEKAAKEYWKKKKEAIEKHLEKLKAKDKEAAERFLKELEEAAKEYAKDEAKTMSEEEAKRRAKKYKEKVLLSELSEEEQKEIKEAEEKLVRTILKYVEEAAK	10.4
E42G (designed binder) SMEEEVEKAAKEYEKKKKEAIEKHLEKLKAKDKEAAERFLKGLEEAAKEYAKDEAKTMSEEEAKRRAKKYKEKVLLSELSEEEQKEIKEAEEKLVRTILKYVEEAAK	12.5
A35M (designed binder) SMEEEVEKAAKEYEKKKKEAIEKHLEKLKAKDKEMAERFLKELEEAAKEYAKDEAKTMSEEEAKRRAKKYKEKVLLSELSEEEQKEIKEAEEKLVRTILKYVEEAAK	0.446
Y70R (designed binder) SMEEEVEKAAKEYEKKKKEAIEKHLEKLKAKDKEAAERFLKELEEAAKEYAKDEAKTMSEEEAKRRAKKRKEKVLLSELSEEEQKEIKEAEEKLVRTILKYVEEAAK	5.31
R66I (designed binder) SMEEEVEKAAKEYEKKKKEAIEKHLEKLKAKDKEAAERFLKELEEAAKEYAKDEAKTMSEEEAKRIAKKYKEKVLLSELSEEEQKEIKEAEEKLVRTILKYVEEAAK	22.2
I21P (designed binder) SMEEEVEKAAKEYEKKKKEAPEKHLEKLKAKDKEAAERFLKELEEAAKEYAKDEAKTMSEEEAKRRAKKYKEKVLLSELSEEEQKEIKEAEEKLVRTILKYVEEAAK	13.8
A51L (designed binder) SMEEEVEKAAKEYEKKKKEAIEKHLEKLKAKDKEAAERFLKELEEAAKEYLKDEAKTMSEEEAKRRAKKYKEKVLLSELSEEEQKEIKEAEEKLVRTILKYVEEAAK	2.73
L28D (designed binder) SMEEEVEKAAKEYEKKKKEAIEKHLEKDKAKDKEAAERFLKELEEAAKEYAKDEAKTMSEEEAKRRAKKYKEKVLLSELSEEEQKEIKEAEEKLVRTILKYVEEAAK	0.956
L99H (designed binder) SMEEEVEKAAKEYEKKKKEAIEKHLEKLKAKDKEAAERFLKELEEAAKEYAKDEAKTMSEEEAKRRAKKYKEKVLLSELSEEEQKEIKEAEEKLVRTIHKYVEEAAK	4.83
L76D (designed binder) SMEEEVEKAAKEYEKKKKEAIEKHLEKLKAKDKEAAERFLKELEEAAKEYAKDEAKTMSEEEAKRRAKKYKEKVLDSELSEEEQKEIKEAEEKLVRTILKYVEEAAK	1.16
